Several values for one entry are separate records, joined by “and”; a condition that tells them apart may be missing. Equal values may be shown once.
Target: these 5 target proteins
Assay: split reporter

- normalized interacting score: 83% and 93%
B1: Lhs1p (natural protein)
chain: AVLGVDYGQQNIKAIVVSPQAPLELVLTPEAKRKEISGLSIKRLPGYGKDDPNGIERIYGSAVGSLATRFPQNTLLHLKPLLGKSLEDETTVTLYSKQHPGLEMVSTNRSTIAFLVDNVEYPLEELVAMNVQEIANRANSLLKDRDARTEDFVNKMSFTIPDFFDQHQRKALLDASSITTGIEETYLVSEGMSVAVNFVLKQRQFPPGEQQHYIVYDMGSGSIKASMFSILQPEDTTQPVTIEFEGYGYNPHLGGAKFTMDIGSLIENKFLETHPAIRTDELHANPKALAKINQAAEKAKLILSANSEASINIESLINDIDFRTSITRQEFEEFIADSLLDIVKPINDAVTKQFGGYGTNLPEINGVILAGGSSRIPIVQDQLIKLVSEEKVLRNVNADESAVNGVVMRGIKLSNSFKTKPLNVVDRSVNTYSFKLSNESELYDVFTRGSAYPNKTSILTNTTDSIPNNFTIDLFENGKLFETITVNSGAIKNSYSSDKCSSGVAYNITFDLSSDRLFSIQEVNCICQSENDIGNSKQIKNKGSRLAFTSEDVEIKRLSPSERSRLHEHIKLLDKQDKERFQFQENLNVLESNLYDARNLLMDDEVMQNGPKSQVEELSEMVKVYLDWLEDASFDTDPEDIVSRIREIGILKKKIELYMDSAKEPLNSQQFKGMLEEGHKLLQAIETHKNTVEEFLSQFETEFADTIDNVREEFKKIKQPAYVSKALSTWEETLTSFKNSISEIEKFLAKNLFGEDLREHLFEIKLQFDMYRTKLEEKLRLIKSGDESRLNEIKKLHLRNFRLQKRKEEKLKRKLEQEKSRNNNETESTVINSADDKTTIVNDKTTESNPSSEEDILHDEL

Source: publication doi:10.1101/2024.05.21.594841
